From patent US20160271244A1
pKd: −log10 of the molar value.

Assays:
HCV E2 (HCV) = test: Luminex assay, antibody 50 µg/ml
[1] = target: Influenza HA (Wisconsin) (influenza virus); test: Luminex assay, antibody 50 µg/ml
Histone [2] = test: Athena autoantigen assay, mAb 25 ug/ml
Jo 1 [3] = test: Athena autoantigen assay, mAb 25 ug/ml
RNP [4] = test: Athena autoantigen assay, mAb 25 ug/ml
SSA [5] = test: Athena autoantigen assay, mAb 25 ug/ml
SSB [6] = test: Athena autoantigen assay, mAb 25 ug/ml
Scl 70 [7] = test: Athena autoantigen assay, mAb 25 ug/ml
Sm [8] = test: Athena autoantigen assay, mAb 25 ug/ml
Histone [9] = test: Athena autoantigen assay, mAb 50 ug/ml
Jo 1 [10] = test: Athena autoantigen assay, mAb 50 ug/ml
SSA [11] = test: Athena autoantigen assay, mAb 50 ug/ml
SSB [12] = test: Athena autoantigen assay, mAb 50 ug/ml
Histone [13] = test: Athena autoantigen assay, mAb 12.5 ug/ml
Jo 1 [14] = test: Athena autoantigen assay, mAb 12.5 ug/ml
RNP [15] = test: Athena autoantigen assay, mAb 12.5 ug/ml
SSA [16] = test: Athena autoantigen assay, mAb 12.5 ug/ml
SSB [17] = test: Athena autoantigen assay, mAb 12.5 ug/ml
Scl 70 [18] = test: Athena autoantigen assay, mAb 12.5 ug/ml
Sm [19] = test: Athena autoantigen assay, mAb 12.5 ug/ml
Histone [20] = test: Athena autoantigen assay, mAb 6.25 ug/ml
Jo 1 [21] = test: Athena autoantigen assay, mAb 6.25 ug/ml
RNP [22] = test: Athena autoantigen assay, mAb 6.25 ug/ml
SSA [23] = test: Athena autoantigen assay, mAb 6.25 ug/ml
SSB [24] = test: Athena autoantigen assay, mAb 6.25 ug/ml
Scl 70 [25] = test: Athena autoantigen assay, mAb 6.25 ug/ml
Sm [26] = test: Athena autoantigen assay, mAb 6.25 ug/ml
JRFL gp140 (HIV-1) [27] = test: SPR, MAb on the surface, Env injected; JRFFL wt (not deglycosylated)
[28] = target: deglycosylated JRFL gp140 CF (HIV-1); test: SPR, MAb on the surface, Env injected; JRFL wt DEG 5 (PNGase 5 U/µg)
[29] = target: deglycosylated JRFL gp140 CF (HIV-1); test: SPR, MAb on the surface, Env injected; JRFL wt DEG 20 (PNGase 20 U/µg)
[30] = target: deglycosylated JRFL gp140 CF (HIV-1); test: SPR, MAb on the surface, Env injected; JRFL wt DEG 500 (PNGase 500 U/µg)
JRFL gp140 (HIV-1) [31] = test: SPR, MAb on the surface, Env injected; JRFFL wt (not deglycosylated); Koff (x10^-3 s-1)
[32] = target: deglycosylated JRFL gp140 CF (HIV-1); test: SPR, MAb on the surface, Env injected; JRFL wt DEG 5 (PNGase 5 U/µg); Koff (x10^-3 s-1)
[33] = target: membrane conjugated gp41-inter; test: SPR, gp41-inter held by Ni on liposomes captured on the chip, mAb injected; bivalent analyte fit [right panel]
JRFL gp140 (HIV-1) [34] = test: SPR, MAb on the surface, Env injected; JRFFL wt (not deglycosylated); Kon (x10^3 M-1s-1)
[35] = target: deglycosylated JRFL gp140 CF (HIV-1); test: SPR, MAb on the surface, Env injected; JRFL wt DEG 5 (PNGase 5 U/µg); Kon (x10^3 M-1s-1)
[36] = target: deglycosylated JRFL gp140 CF (HIV-1); test: SPR, MAb on the surface, Env injected; JRFL wt DEG 20 (PNGase 20 U/µg); Koff (x10^-3 s-1)
[37] = target: deglycosylated JRFL gp140 CF (HIV-1); test: SPR, MAb on the surface, Env injected; JRFL wt DEG 20 (PNGase 20 U/µg); Kon (x10^3 M-1s-1)
[38] = target: deglycosylated JRFL gp140 CF (HIV-1); test: SPR, MAb on the surface, Env injected; JRFL wt DEG 500 (PNGase 500 U/µg); Koff (x10^-3 s-1)
[39] = target: deglycosylated JRFL gp140 CF (HIV-1); test: SPR, MAb on the surface, Env injected; JRFL wt DEG 500 (PNGase 500 U/µg); Kon (x10^3 M-1s-1)

Chain of SSB (P05455 whole entry): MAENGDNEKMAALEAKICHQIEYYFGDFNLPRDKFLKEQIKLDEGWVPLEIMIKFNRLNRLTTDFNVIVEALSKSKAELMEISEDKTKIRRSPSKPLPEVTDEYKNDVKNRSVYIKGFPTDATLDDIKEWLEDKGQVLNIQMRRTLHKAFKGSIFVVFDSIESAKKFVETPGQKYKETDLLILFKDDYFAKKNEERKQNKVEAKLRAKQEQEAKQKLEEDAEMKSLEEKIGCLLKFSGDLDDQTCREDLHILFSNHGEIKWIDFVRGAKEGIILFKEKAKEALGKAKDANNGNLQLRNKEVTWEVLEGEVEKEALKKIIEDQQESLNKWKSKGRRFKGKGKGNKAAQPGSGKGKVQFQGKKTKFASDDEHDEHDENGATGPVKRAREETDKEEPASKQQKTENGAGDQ
Chain of Jo 1 (P12081 2-509): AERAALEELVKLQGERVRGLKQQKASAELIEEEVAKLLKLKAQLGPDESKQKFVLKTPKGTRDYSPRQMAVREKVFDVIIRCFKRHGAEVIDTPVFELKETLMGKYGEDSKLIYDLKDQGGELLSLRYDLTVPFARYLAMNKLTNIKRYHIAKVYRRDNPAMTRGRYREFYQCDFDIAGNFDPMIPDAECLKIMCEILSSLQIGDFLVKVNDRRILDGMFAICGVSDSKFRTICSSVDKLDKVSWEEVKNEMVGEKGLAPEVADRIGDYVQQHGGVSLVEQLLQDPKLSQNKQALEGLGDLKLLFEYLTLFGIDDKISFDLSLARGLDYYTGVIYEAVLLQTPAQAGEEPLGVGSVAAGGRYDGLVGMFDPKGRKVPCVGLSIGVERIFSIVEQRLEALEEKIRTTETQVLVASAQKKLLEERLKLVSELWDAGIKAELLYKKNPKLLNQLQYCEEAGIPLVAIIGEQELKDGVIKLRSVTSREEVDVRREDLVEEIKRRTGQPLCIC

Question: 4E10 (antibody) was tested. Which background subtracted RFUs (HCV E2 (HCV)) did it give?
Answer: Its background subtracted RFUs is 89.2 RFU.

Question: And the background subtracted RFUs [1]?
Answer: The background subtracted RFUs was 0 RFU.

Question: And the Athena autoreactivity score (Histone [2])?
Answer: The Athena autoreactivity score was 274.

Question: And the Athena autoreactivity score (Jo 1 [3])?
Answer: Its Athena autoreactivity score is 138.

Question: What about the Athena autoreactivity score (RNP [4]) of the same substance?
Answer: The Athena autoreactivity score was 15.

Question: And the Athena autoreactivity score (SSA [5])?
Answer: Its Athena autoreactivity score is 247.

Question: What about the Athena autoreactivity score (SSB [6]) of the same substance?
Answer: The Athena autoreactivity score was 206.

Question: And the Athena autoreactivity score (Scl 70 [7])?
Answer: Its Athena autoreactivity score is 4.

Question: What about the Athena autoreactivity score (Sm [8]) of the same substance?
Answer: Its Athena autoreactivity score is 7.

Question: And the Athena autoreactivity score (Histone [9])?
Answer: The Athena autoreactivity score was 333.

Question: And the Athena autoreactivity score (Jo 1 [10])?
Answer: Its Athena autoreactivity score is 156.

Question: And the Athena autoreactivity score (SSA [11])?
Answer: The Athena autoreactivity score was 306.

Question: And the Athena autoreactivity score (SSB [12])?
Answer: Its Athena autoreactivity score is 254.

Question: What about the Athena autoreactivity score (Histone [13]) of the same substance?
Answer: The Athena autoreactivity score was 160.

Question: And the Athena autoreactivity score (Jo 1 [14])?
Answer: Its Athena autoreactivity score is 87.

Question: What about the Athena autoreactivity score (RNP [15]) of the same substance?
Answer: The Athena autoreactivity score was 9.

Question: And the Athena autoreactivity score (SSA [16])?
Answer: The Athena autoreactivity score was 169.

Question: And the Athena autoreactivity score (SSB [17])?
Answer: Its Athena autoreactivity score is 124.

Question: What about the Athena autoreactivity score (Scl 70 [18]) of the same substance?
Answer: The Athena autoreactivity score was 3.

Question: And the Athena autoreactivity score (Sm [19])?
Answer: Its Athena autoreactivity score is 5.

Question: What about the Athena autoreactivity score (Histone [20]) of the same substance?
Answer: Its Athena autoreactivity score is 113.

Question: And the Athena autoreactivity score (Jo 1 [21])?
Answer: Its Athena autoreactivity score is 65.

Question: What about the Athena autoreactivity score (RNP [22]) of the same substance?
Answer: The Athena autoreactivity score was 6.

Question: What about the Athena autoreactivity score (SSA [23]) of the same substance?
Answer: Its Athena autoreactivity score is 115.

Question: And the Athena autoreactivity score (SSB [24])?
Answer: The Athena autoreactivity score was 93.

Question: What about the Athena autoreactivity score (Scl 70 [25]) of the same substance?
Answer: Its Athena autoreactivity score is 2.

Question: What about the Athena autoreactivity score (Sm [26]) of the same substance?
Answer: Its Athena autoreactivity score is 4.

Question: And the pKd (JRFL gp140 (HIV-1) [27])?
Answer: The pKd was 5.66.

Question: What about the pKd [28] of the same substance?
Answer: The pKd was 6.87.

Question: What about the pKd [29] of the same substance?
Answer: The pKd was 7.40.

Question: And the pKd [30]?
Answer: Its pKd is 7.30.

Question: And the koff (JRFL gp140 (HIV-1) [31])?
Answer: The koff was 0.0013 s⁻¹.

Question: What about the koff [32] of the same substance?
Answer: Its koff is 0.001 s⁻¹.

Question: What about the pKd [33] of the same substance?
Answer: Its pKd is 9.14.

Question: What about the koff [33] of the same substance?
Answer: The koff was 2.5e-05 s⁻¹.

Question: What about the kon (JRFL gp140 (HIV-1) [34]) of the same substance?
Answer: The kon was 600 M⁻¹ s⁻¹.

Question: What about the kon [35] of the same substance?
Answer: The kon was 7400 M⁻¹ s⁻¹.

Question: What about the koff [36] of the same substance?
Answer: Its koff is 0.00099 s⁻¹.

Question: What about the kon [37] of the same substance?
Answer: Its kon is 27000 M⁻¹ s⁻¹.

Question: And the koff [38]?
Answer: The koff was 0.001 s⁻¹.

Question: And the kon [39]?
Answer: The kon was 21000 M⁻¹ s⁻¹.
